B1: Tma17p, the gamma-subunit of the yeast fatty acid synthase (TMA 17 molecule from Saccharomyces cerevisiae) (protein)
chain: MCSAGGIRRPIQIEEFKTAISGMSDMELAQIKTEIENSINHLQRSNARLGKYIAKLEGADDRLEADDSDDLENIDSGDLALYKDSVRENEIVLNNYNERVDALEQETVYRKTGHGKSKHEVEAKDNTNKGPDVDMDNSNVDVVTPNSIFI

How the values were obtained:
[1] = system: T1, NHS-Rhodamine labelled recombinant Tma17p (γ-subunit); assay: titration of NHS-Rhodamine labelled γ-subunit against ΔTma17p-FAS, native agarose gel, fluorescence of FAS-bound Tma17p quantified
T1 sequence: B1 chain

[2] = biological target: Saccharomyces cerevisiae type I fatty acid synthase (α6β6, 2.6 MDa) without the γ-subunit (Saccharomyces cerevisiae) (UniProt P19097); assay: cell-based or functional assay
Chain of UniProt P19097 (P19097 whole entry, chain 1 of 2): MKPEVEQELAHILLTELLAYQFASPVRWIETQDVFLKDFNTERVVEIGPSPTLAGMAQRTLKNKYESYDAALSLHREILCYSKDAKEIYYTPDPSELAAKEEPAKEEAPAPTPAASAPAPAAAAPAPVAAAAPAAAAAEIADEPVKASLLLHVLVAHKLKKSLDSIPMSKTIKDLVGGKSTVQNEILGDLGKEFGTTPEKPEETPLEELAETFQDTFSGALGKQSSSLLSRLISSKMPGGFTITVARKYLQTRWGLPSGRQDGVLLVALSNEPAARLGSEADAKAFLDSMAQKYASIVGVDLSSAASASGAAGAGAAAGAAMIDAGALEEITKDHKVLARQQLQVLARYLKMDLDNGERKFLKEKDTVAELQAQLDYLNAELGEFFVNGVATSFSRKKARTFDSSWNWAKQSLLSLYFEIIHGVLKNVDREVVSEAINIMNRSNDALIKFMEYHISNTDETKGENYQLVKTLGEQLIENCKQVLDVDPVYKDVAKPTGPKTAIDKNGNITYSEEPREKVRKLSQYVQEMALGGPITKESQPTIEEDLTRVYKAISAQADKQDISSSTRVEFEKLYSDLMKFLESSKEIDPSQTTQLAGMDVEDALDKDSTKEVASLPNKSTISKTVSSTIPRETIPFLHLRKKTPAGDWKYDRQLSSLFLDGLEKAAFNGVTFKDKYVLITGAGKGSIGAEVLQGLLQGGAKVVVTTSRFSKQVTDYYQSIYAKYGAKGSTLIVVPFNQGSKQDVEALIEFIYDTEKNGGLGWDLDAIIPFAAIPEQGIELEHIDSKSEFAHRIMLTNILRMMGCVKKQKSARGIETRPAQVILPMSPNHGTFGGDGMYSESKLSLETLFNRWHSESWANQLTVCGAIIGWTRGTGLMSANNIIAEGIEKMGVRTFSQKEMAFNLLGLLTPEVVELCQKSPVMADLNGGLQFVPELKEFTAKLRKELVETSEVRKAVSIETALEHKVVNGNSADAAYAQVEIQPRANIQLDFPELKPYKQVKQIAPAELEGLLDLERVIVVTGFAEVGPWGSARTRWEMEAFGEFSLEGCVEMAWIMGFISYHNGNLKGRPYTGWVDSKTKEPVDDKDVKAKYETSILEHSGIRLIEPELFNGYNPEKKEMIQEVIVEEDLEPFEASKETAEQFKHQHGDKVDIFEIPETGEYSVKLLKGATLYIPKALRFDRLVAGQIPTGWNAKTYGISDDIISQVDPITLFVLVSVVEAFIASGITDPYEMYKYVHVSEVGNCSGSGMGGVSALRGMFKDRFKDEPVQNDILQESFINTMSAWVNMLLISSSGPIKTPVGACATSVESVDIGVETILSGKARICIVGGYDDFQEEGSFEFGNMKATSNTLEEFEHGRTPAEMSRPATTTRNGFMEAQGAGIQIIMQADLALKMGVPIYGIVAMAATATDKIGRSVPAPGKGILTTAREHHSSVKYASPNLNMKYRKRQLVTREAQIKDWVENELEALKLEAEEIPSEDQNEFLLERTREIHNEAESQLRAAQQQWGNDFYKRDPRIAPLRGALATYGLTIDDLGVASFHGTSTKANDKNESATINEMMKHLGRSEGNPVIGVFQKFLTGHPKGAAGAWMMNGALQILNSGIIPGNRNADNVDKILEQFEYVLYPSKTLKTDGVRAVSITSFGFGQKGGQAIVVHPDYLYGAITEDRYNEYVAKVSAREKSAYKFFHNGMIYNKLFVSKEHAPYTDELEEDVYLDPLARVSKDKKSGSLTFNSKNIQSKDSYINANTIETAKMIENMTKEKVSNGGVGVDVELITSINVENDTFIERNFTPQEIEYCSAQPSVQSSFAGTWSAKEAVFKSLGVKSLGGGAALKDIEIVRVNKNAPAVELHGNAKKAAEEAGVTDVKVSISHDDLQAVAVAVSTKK
Chain of UniProt P19097 (P07149 whole entry, chain 2 of 2, further chain): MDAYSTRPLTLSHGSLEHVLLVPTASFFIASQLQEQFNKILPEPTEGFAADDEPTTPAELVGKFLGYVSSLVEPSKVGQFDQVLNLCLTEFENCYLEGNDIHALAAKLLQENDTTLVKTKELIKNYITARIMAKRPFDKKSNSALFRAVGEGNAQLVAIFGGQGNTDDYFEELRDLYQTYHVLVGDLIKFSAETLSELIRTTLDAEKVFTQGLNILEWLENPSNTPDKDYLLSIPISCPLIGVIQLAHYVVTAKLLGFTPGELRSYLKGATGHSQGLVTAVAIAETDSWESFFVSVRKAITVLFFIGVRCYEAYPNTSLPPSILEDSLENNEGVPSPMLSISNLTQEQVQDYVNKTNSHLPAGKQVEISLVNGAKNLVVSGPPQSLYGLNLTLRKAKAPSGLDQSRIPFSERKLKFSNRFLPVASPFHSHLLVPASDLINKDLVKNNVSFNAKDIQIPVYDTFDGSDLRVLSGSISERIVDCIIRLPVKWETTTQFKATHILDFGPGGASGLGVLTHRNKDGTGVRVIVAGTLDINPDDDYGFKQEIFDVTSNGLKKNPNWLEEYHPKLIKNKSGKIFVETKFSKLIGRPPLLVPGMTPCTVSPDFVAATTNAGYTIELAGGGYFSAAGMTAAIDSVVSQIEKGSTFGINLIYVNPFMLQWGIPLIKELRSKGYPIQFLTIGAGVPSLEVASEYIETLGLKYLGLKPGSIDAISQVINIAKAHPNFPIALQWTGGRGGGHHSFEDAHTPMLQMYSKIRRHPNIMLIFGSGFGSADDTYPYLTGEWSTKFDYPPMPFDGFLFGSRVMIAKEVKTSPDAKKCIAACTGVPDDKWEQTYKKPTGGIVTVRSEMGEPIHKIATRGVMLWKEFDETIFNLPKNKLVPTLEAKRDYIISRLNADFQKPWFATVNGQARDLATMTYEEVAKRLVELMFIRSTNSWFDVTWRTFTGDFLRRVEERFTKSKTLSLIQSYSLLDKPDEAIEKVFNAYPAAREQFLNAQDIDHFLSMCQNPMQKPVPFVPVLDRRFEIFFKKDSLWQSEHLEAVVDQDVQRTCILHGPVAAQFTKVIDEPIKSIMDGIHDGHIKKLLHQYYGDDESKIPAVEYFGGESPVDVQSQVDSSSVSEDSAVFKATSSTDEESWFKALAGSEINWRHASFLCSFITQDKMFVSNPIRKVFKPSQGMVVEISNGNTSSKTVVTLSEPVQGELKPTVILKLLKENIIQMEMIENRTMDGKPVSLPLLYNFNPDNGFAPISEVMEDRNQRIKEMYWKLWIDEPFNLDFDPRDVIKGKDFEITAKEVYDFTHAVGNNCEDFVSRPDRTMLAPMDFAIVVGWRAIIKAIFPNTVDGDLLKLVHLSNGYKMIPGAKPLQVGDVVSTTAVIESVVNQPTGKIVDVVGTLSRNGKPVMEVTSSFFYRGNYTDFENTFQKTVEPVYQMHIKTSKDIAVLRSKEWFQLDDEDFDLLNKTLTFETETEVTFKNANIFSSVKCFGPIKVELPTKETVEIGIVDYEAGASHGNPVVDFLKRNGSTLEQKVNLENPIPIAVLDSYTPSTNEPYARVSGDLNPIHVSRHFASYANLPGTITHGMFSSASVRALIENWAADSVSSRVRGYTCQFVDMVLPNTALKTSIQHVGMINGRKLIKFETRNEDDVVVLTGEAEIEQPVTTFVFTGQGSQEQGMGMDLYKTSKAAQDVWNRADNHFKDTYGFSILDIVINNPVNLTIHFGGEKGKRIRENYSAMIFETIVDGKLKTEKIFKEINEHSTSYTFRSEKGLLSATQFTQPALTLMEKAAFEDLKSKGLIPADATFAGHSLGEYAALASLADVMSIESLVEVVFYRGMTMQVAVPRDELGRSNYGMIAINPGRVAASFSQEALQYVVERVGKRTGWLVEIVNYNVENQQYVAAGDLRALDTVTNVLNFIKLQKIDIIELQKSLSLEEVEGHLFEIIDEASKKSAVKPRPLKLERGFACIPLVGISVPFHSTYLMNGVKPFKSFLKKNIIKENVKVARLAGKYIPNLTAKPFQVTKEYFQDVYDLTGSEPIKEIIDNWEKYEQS

Molecule | K0.5 (Hill equation) [1] | KMapp for NADPH, steady-state kinetics of the FAS holoenzyme (saturating γ-subunit) [2] | fold decrease of affinity for acetyl-CoA, steady-state kinetics [2] | fold decrease of affinity for malonyl-CoA, steady-state kinetics [2] | fold reduction in the binding affinity for NADPH, steady-state kinetics [2] | percent of selected cryo-EM particles in the rotated state, at a 6-fold excess of the γ-subunit [2] | percent of selected cryo-EM particles in the rotated state, at a 12-fold molar excess of the γ-subunit [2]
Saccharomyces cerevisiae type I fatty acid synthase (α6β6, 2.6 MDa) without the γ-subunit | K0.5=2.1±0.2 µM |  |  |  |  |  | 
B1 |  | 155 µM | 2 fold | 4 fold | 15 fold | 88% | 95%
